Results on five molecules are retold here after US20240287177A1 (Merck KGaA, published 2024).

The target of assay [1] is NKp30 on human NK cells (human) (UniProt O14931). As to the kind of experiment: cell-based or functional assay.
Assay [2] addresses FcγRIIIa on human NK cells (human) (UniProt P08637). As to the kind of experiment: cell-based or functional assay.
Assay [3] has as its target recombinant human NKp30 extracellular domain, his-tagged (human) (UniProt O14931). As to the kind of experiment: BLI, SEEDbody on anti-human Fc sensors, soluble NKp30, 1:1 fit.
The target in assay [4] is T1, recombinant human NKp30 extracellular domain, his-tagged (human, UniProt O14931 19-135).
T1 construct: BLI used human NKp30 bought from Abcam (his-tagged ECD); also called rh NKp30 ECD; human NKp30 (Abcam); not shown: his tag
T1 sequence: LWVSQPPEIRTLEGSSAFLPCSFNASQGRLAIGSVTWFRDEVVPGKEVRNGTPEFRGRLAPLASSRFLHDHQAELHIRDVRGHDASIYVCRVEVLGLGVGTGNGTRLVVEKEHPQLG
As to the kind of experiment: BLI as in Example 1, maximum binding capacity.

Assay [5] concerns the target T1, recombinant human NKp30 extracellular …. As to the kind of experiment: BLI as in Example 1.

Chain of FcγRIIIa on human NK cells (human) (P08637 17-254): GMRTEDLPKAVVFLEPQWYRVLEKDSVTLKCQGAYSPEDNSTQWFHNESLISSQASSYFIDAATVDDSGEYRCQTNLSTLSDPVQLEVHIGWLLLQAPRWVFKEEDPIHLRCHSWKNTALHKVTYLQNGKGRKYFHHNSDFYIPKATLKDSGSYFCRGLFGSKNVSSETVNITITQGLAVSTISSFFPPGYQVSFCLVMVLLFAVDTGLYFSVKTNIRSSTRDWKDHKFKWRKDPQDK

B1: VHH1 SEEDbody eff- (bispecific antibody, part only; not given: silenced SEED Fc and cetuximab Fab, V domains shown, not shown: another chain or arm of the molecule; a dimerising Fc or GST; small tags and cut ends)
VHH: DVQLQESGGGLVQPGGSLRLSCATSGFTLDDYTIGWVRQAPGKEHEGVSCFSPSDGTTYYADSVKGRFTFSRDNAKNTVYLQMNSLKPEDTAVYYCAASFADGSSWCYDYWGQGTQVTVSS
In assay [1], B1 displayed an EC50 (nM), MNC based killing of A431 cells, E:T 80:1 of 0.00171 nM; an EC50, lysis of A431 cells by isolated NK cells, E:T 10:1 of 2.2 pM; a Max. IFNγ release (pg/ml), NK cells with A431 cells of 753 pg/mL; a Max. Killing (% Lysis), MNC based killing of A431 cells, E:T 80:1 of 53 % Lysis. In addition, the Max. TNFα release (pg/ml), NK cells with A431 cells in assay [1] was found to be 104 pg/mL. This molecule came in with an EC50, lysis of A431 cells by isolated NK cells, E:T 10:1 in assay [2] of 3.2 pM. Besides, in assay [3], the Kd was determined as 270 pM, the koff is 0.000222 s⁻¹ and the kon is 819000 M⁻¹ s⁻¹.

B2: VHH1.8 (humanized) (VHH)
VHH: EVQLVESGGGVVQPGGSLRLSCATSGFTLDDYTIGWVRQAPGKGLEGVSCFSPSDGTTYYADSVKGRFTISRDNAKNTLYLQMNSLRAEDTAVYYCAASFADGSSWCYDYWGQGTLVTVSS
notes: expressed and measured by BLI 'as described in Experiment 1' (there: bispecific SEEDbody on anti-human Fc sensors)
Consider B2, for which, in assay [4], the “Emax (nm)” value amounted to 0.1 nm. For the same molecule, the Kd in assay [5] came out at 1130 pM.

B3: VHH1.7 (humanized) (VHH)
VHH: EVQLVESGGGVVQPGGSLRLSCAASGFTLDDYTIGWVRQAPGKGLEGVSCFSPSDGTTYYADSVKGRFTFSRDNAKNTLYLQMNSLRAEDTAVYYCAASFADGSSWCYDYWGQGTLVTVSS
notes: as for B2
As for B3, the “Emax (nm)” value in assay [4] was determined as 0.09 nm. In assay [5], the Kd came to 533 pM.

B4: VHH1.9 (humanized) (VHH)
VHH: EVQLVESGGGVVQPGGSLRLSCAASGFTLDDYTIGWVRQAPGKGLEGVSCFSPSDGTTYYADSVKGRFTISRDNAKNTLYLQMNSLRAEDTAVYYCAASFADGSSWCYDYWGQGTLVTVSS
notes: as for B2
In the case of B4, the “Emax (nm)” value in assay [4] was 0.1 nm. Besides, the Kd in assay [5] was determined as 1060 pM.

B5: VHH2 SEEDbody eff- (bispecific antibody, part only; not given: silenced SEED Fc and cetuximab Fab, V domains shown, not shown: another chain or arm of the molecule; a dimerising Fc or GST; small tags and cut ends)
VHH: DVQLQESGGGLVQAGGSLRLSCAVSGQTWTNYHIGWFRQAPGKARESVASIEWGGRGTYATDSVKGRFTISRDNAKNTVYLQMNSLKPEDTAVYYCAAQSSSRSPLESNYDYWGQGTQVTVSS
In assay [1], B5 showed an EC50 (nM), MNC based killing of A431 cells, E:T 80:1 of 0.0132 nM; an EC50, lysis of A431 cells by isolated NK cells, E:T 10:1 of 34.4 pM; a Max. IFNγ release (pg/ml), NK cells with A431 cells of 580 pg/mL; a Max. Killing (% Lysis), MNC based killing of A431 cells, E:T 80:1 of 51 % Lysis. For the same molecule, the Max. TNFα release (pg/ml), NK cells with A431 cells in assay [1] was 118 pg/mL. In addition, in assay [2], the EC50, lysis of A431 cells by isolated NK cells, E:T 10:1 was found to be 3.9 pM and the fold increase of killing potency, eff+ against eff- amounted to 8.8 fold. Also, in assay [3], the Kd was found to be 3270 pM, the koff was determined as 0.000646 s⁻¹ and the kon came out at 198000 M⁻¹ s⁻¹.
